# B1: LexA DBD alone (YEplac181GLexA202) (other)
# chain: MKALTARQQEVFDLIRDHISQTGMPPTRAEIAQRLGFRSPNAAEEHLKALARKGVIEIVSGASRGIRLLQEEEEGLPLVGRVAAGEPLLAQQHIEGHYQVDPSLFKPNADFLLRVSGMSMKDIGIMDGDLLAVHKTQDVRNGQVVVARIDDEVTVKRLKKQGNKVELLPENSEFKPIVVDLRQQSFTIEGLAVGVIRNGDWL
# Molecular target: BPV-1 E2 protein, wild type, full length (amino acids 1 to 410) (bovine papillomavirus (BPV-1), UniProt P03122)
# Experiment: alternative two hybrid assay in yeast, LexA/LacZ reporter pSH18-34, GAL/XGAL plate
binder,measurement,value
B1,binding result,no binding

# Source: patent publication US5770384, “Method for determining compound interaction with E2 binding proteins” (New England Medical Center Hospitals, Inc, dated 1998)
